Reference: patent publication US20210292412A1 (published 2021)
Changes are numbered by the printed parent chain.

T1: recombinant N-terminal extracellular domain protein of human CD47 molecule (hCD47) (UniProt Q08722 19-135)
T1 chain: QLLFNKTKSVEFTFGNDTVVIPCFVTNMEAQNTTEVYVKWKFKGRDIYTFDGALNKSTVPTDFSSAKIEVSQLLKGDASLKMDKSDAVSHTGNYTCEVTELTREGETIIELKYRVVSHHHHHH

B1: h15G6 VH-v5/VK-v1 (antibody, V domains shown)
VH: QVQLVQSGAEVKKPGASVKVSCKASGYTFTDYYIHWVRQAPGQGLEWMGWIYPGSGNTKYNEKFQGRVTMTRDTSISTAYMELSSLRSDDTAVYYCARRREDSFDYWGQGTLVTVSS
VL: DIVMTQSPDSLAVSLGERATINCKSSQSLLYSSNQKNYLAWYQRKPGQPPKLLIYWASNRESGVPDRFSGSGSGTDFTLTISSLQAEDVAVYYCQQFYRYPLTFGQGTKVEIK
B2: h15G6 VH-v7/VK-v1 (antibody, V domains shown)
VH: B1 VH with V11L, M70L, R72V, I76T, A79V
VL: B1 VL
B3: h15G6 VH-v1/VK-v1 (antibody, V domains shown)
VH: B1 VH with V2I, M70L, R72V, I76S, A79V, Y95F, L112T, V113L
VL: B1 VL
B4: h15G6 VH-v7/VK-v2 (antibody, V domains shown)
VH: B1 VH with V11L, M70L, R72V, I76T, A79V
VL: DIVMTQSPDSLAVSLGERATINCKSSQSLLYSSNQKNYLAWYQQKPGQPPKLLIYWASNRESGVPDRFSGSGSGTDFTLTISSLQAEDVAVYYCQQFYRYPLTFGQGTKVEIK

Tests used:
[1] = target: T1, recombinant N-terminal extracellular …; test: BLI; avid
[2] = target: T1, recombinant N-terminal extracellular …; test: BLI; affinity
[3] = target: T2, human CD47 on CCRF-CEM cells (CD47 positive cells) (human, UniProt Q08722 19-323); test: FACS binding
[4] = target: T1, recombinant N-terminal extracellular …; test: ELISA binding
[5] = target: T2, human CD47 on CCRF-CEM cells (CD47 …); test: FACS blocking of CD47-SIRPα
[6] = target: T1, recombinant N-terminal extracellular …; test: ELISA blocking of CD47-SIRPα

Binder | Kd [1] [nM] | Kd [2] [nM] | EC50 [3] [nM] | EC50 [4] [nM] | IC50 [5] [nM] | IC50 [6] [nM]
B1 | 0.2 | 23 | 0.0483 | 0.0314 | 0.0488 | 0.118
B2 | 0.6 | 41 | 0.0482 | 0.0283 | 0.134 | 0.053
B3 | 0.41 | 18 | 0.0602 | 0.092 | 0.0686 | 0.0942
B4 | 0.71 | 56 | 0.0488 | 0.0229 | 0.0397 | 0.0843
